Measured values from patent US20240262878A1, “PHOTOACTIVATABLE GASDERMIN PROTEINS” (THE BOARD OF TRUSTEES OF THE UNIVERSITY OF ILLINOIS, priority 2021, published 2024).
Entries after “also recorded” stand apart in the source; their conditions may differ.

Columns and labels:
full length human GSDMD = test system: T1, full length human GSDMD
T1 sequence: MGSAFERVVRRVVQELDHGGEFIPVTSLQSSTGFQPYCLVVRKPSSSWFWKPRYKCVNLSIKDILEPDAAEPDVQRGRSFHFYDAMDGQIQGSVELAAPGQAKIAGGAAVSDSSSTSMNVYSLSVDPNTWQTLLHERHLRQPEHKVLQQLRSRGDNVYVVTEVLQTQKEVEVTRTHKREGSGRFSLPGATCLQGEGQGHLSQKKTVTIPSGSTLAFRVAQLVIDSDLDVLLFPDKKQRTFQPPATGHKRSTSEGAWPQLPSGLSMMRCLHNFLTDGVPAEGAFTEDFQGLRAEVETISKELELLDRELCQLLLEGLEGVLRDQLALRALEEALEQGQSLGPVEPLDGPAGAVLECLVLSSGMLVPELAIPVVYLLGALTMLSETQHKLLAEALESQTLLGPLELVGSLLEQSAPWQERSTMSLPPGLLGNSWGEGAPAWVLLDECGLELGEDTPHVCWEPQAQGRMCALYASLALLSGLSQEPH

Hela cells [1] = assay: Optogenetic activation of PhoDer, membrane-targeted jRCaMP1b calcium flare imaging and fluctuation analysis; assay type: cell-based
Experimental: Cloning. Cloning and subcloning were performed using the DH5a strain of E. coli. All mammalian constructs were cloned into the pcDNA3.0 vector with a modified multiple cloning site. Plasmids were generated as follows. Gasdermin D gene was obtained from Addgene. A diffusible optogenetic GSDMD, referred to herein as “PhoDer” and set forth in SEQ ID NO: 33, was constructed according to the reported domains structure by ligating three fragments into the pcDNA3.0 vector in one reaction via Gibson Assembly (New England BioLabs). For each fragment, PCR was specifically designed to create appropriate complementation. The jRCaMP1b gene, encoding a sensitive red protein calcium indicator, was obtained from Addgene. Membrane targeted calcium indicator jRCaMP1b was constructed by ligating a PCR fragment of the calcium indicator into the restriction enzyme sites BamHI and EcoRI in a modified pcDNA3.0 vector carrying a 5′ fragment encoding the N-terminal Lyn kinase localization sequence.
(§1) Cell Culture. HeLa and RAW264.7 cells were maintained in Dulbecco's Modified Eagle Medium (DMEM) medium supplemented with 10% fetal bovine serum (FBS) and 1% penicillin and streptomycin. Cells were transfected at 50%-70% confluency using LIPOFECTAMINE® 2000 transfection reagent and incubated for 24 hours before imaging. Cells were never serum-starved. To examine endogenous inflammatory activation, RAW264.7 cells were treated with 100 ng/μL lipopolysaccharide (LPS, Invivogen) at the beginning of each experiment. Pretreatment to bias membrane composition by phosphatidylinositol 4,5-bisphosphate (PIP2) modifying enzymes was performed by incubating Hela cells in Hanks' Balanced Salt Solution (HBSS) buffer with inhibitors at 37° C. for 10 minutes to prior imaging at the following concentrations: for phosphoinositide 3-kinase (PI3K), cells were treated 10 μM wortmannin (Tocris); and for phospholipase C (PLC), cells were treated with 10 μM U73122 (Tocris). Cells were removed from the incubator and allowed to come to thermal equilibrium before being imaged in HBSS buffer at room temperature.
Fluorescence Imaging, Optogenetic Activation, and Post-Processing. All epifluorescence imaging was performed on a customized Nikon Ti2-E microscope equipped with individual control over excitation (EX) and emission (EM) filters, a fast LED light source (Lumencor) with fluid-cooled EMCCD (Andor), motorized stage, and examined under a 40× or 100× oil immersion objective under live focus tracking. For RFP, excitation (EX) and emission (EM) filter combinations (maxima/bandwidth in nm) are indicated. Cells were imaged at 12-15 second intervals. Emission intensities of individual cells were background-subtracted before normalization to zero time point, when optogenetic activation began. In the optical setup, optogenetic activation of PhoDer was performed using an EX filter at 440/20 nm for 20-30 ms across whole fields of view. This replicated the progression of endogenous activation of GSDMD observed in LPS-stimulated RAW264.7 cells. […] Where applicable, inhibitors were treated at the indicated concentration for 15 minutes prior to imaging.
Fluctuation Analysis and Quantification. To automate the objective isolation and quantitation of calcium flares, a post-processing algorithm was developed based on principles and normalization scheme detailed in work on photochromic stochastic optical fluctuation imaging (pcSOFI) (Dedecker et al. (2012) Proc. Natl. Acad. Sci. USA 109: 10909-10914). Briefly, fluctuation caused by the flares generate high autocorrelation signals in time-averaged series and yield high contrast at locales of the greatest ion flux. To truly reflect the local flux change, it is then normalized to remove dependence on the number of biosensors reporting at the given location using a scheme detailed previously (Mo et al. (2017) Nat. Methods 14 (4): 427-434). […]

[2] = test system: RAW264.7 and mouse bone marrow-derived macrophages (BMDM); assay: Optogenetic activation of PhoDer in transiently transfected macrophages, calcium response; assay type: cell-based; conditions: transiently transfected RAW264.7 and mouse BMDM
Experimental: as §1
Fluorescence Imaging, Optogenetic Activation, and Post-Processing. […]

Hela cells [3] = assay: Modulating molecular transport of a cell by light activation of PhoDer (GFP efflux, phalloidin influx, antibody delivery); assay type: cell-based
Experimental: Using the PhoDer protein, it was determined whether a large molecule, i.e., an impermeable dye, fluorescent protein or an IgG antibody, could be transported into or out of a living cell via light-inducible activation of the PhoDer construct.
GFP Efflux. Cells expressing GFP were transfected with the PhoDer protein and illuminated intermittently for 1 hour. Over time the gasdermin pore grew larger and GFP fluorescence was captured on a fluorescence microscope using a 40× objective.
Phalloidin Influx. Phalloidin is a cell impermeable dye used in the labeling of F-actin. Cells were transfected with the PhoDer protein and contacted with phalloidin in the cell medium. The cells were subsequently illuminated and permeation of the phalloidin was monitored. […] As such, control gasdermin pore formation was capable of mediating cargo delivery in the absence of cell death.
Antibody Delivery. Hela cells expressing PhoDer were placed in medium containing a fluorescently tagged anti-tubulin monoclonal IgG antibody (˜150 kDa, ˜14 nm in size). Before exposure to light, antibody fluorescence was evident in the medium. […] Super-resolution imaging of the cells was carried out using STORM (Stochastic Optical Reconstruction Microscopy). […] Advantageously, the cells remained intact and alive thereby allowing for analysis of cytoskeletal tubulin and nuclear tubulin. […] Given that cytoskeletal and nuclear tubulin have distinct functions apart from their structural roles in forming microtubules, delivery of the anti-tubulin antibody via the present invention allows for further subcellular analysis of tubulin in living cells.

## caspase-1
Full length human GSDMD
  micro-current recordings in a POPE/POPC planar lipid bilayer: upon the addition of activated GSDMD (mixture with caspase-1 to cleave the C-terminal autoinhibition domain), minute current fluctuations were detected

B1: PhoDer: optogenetically activatable human GSDMD with photocleavable linker between N- and C-terminal domains, SEQ ID NO: 33 (protein)
chain: MGSAFERVVRRVVQELDHGGEFIPVTSLQSSTGFQPYCLVVRKPSSSWFWKPRYKCVNLSIKDILEPDAAEPDVQRGRSFHFYDAMDGQIQGSVELAAPGQAKIAGGAAVSDSSSTSMNVYSLSVDPNTWQTLLHERHLRQPEHKVLQQLRSRGDNVYVVTEVLQTQKEVEVTRTHKREGSGRFSLPGATCLQGEGQGHLSQKKTVTIPSGSTLAFRVAQLVIDSDLDVLLFPDKKQRTFQPPATGHKRSTSEGAWPQLPSGLSMMRCLHNGGGSVIPDYFKQSFPEGYSWERSMTYEDGGICIATNDITMEGDSFINKIHFKGTNFPPNGPVMQKRTVGWEASTEKMYERDGVLKGDVKMKLLLKGGGHYRCDYRTTYKVKQKPVKLPDYHFVDHRIEILSHDKDYNKVKLYEHAVARNSTDSMDELYKGGSGGMVSKGEETITSVIKPDMKNKLRMEGNVNGHAFVIEGEGSGKPFEGIQTIDLEVKEGAPLPFAYDILTTAFHYGNRVFTKYPRGGGVPAEGAFTEDFQGLRAEVETISKELELLDRELCQLLLEGLEGVLRDQLALRALEEALEQGQSLGPVEPLDGPAGAVLECLVLSSGMLVPELAIPVVYLLGALTMLSETQHKLLAEALESQTLLGPLELVGSLLEQSAPWQERSTMSLPPGLLGNSWGEGAPAWVLLDECGLELGEDTPHVCWEPQAQGRMCALYASLALLSGLSQEPH
modifications: photocleavable linker
Hela cells [1]
  average circularity (minor/major radii ratio) of the flares: 0.75
  pores that persisted after the mean open time and reopened: ~57%
Hela cells [1]; Hela cells expressing PhoDer, membrane-targeted jRCaMP1b
  calcium response upon optogenetic activation: caused spontaneous calcium flares at sporadic locations on the plasma membrane
Hela cells [1]; average, n=21 pores
  time in which calcium flares maximized: 0.35 min
Hela cells [1]; mean of n=21, R^2=0.996
  cooperative coefficient of pore closing: 0.73
Hela cells [1]; n=21 pores
  average time pores were open: 1.55 min
  mean diameter reached by calcium flares: ~10 μm
[2]
  calcium response upon optogenetic activation: initiated clearly localized transient calcium flares
Hela cells [3]
  time cells observed intact and adherent after antibody delivery: at least 24 hours
Hela cells [3]; Hela cells, about 5 minute blue-light activation
  delivery of fluorescently tagged anti-tubulin monoclonal IgG antibody: the fluorescent antibody was delivered into the interior of the cell
Hela cells [3]; blue-light activation
  cell lysis after phalloidin delivery (calcium imaging): did not lyse
Hela cells [3]; blue-light activation, phalloidin in cell medium
  phalloidin influx, F-actin labeling: allowed phalloidin to permeate and bind F-actin; also recorded: delivers actin labels into living cells
Hela cells [3]; cells expressing GFP, illuminated intermittently for 1 hour
  GFP efflux: GFP left the cell
